Key:
[1] = system: TALE test backbone, repeat 5 RVD AD (synthetic (Xanthomonas TALE)); details: ELISA
[2] = system: TALE test backbone, repeat 5 RVD AE (synthetic (Xanthomonas TALE)); details: ELISA
[3] = system: TALE test backbone, repeat 5 RVD AN (synthetic (Xanthomonas TALE)); details: ELISA
[4] = system: TALE test backbone, repeat 5 RVD AT (synthetic (Xanthomonas TALE)); details: ELISA
[5] = system: TALE test backbone, repeat 5 RVD DH (synthetic (Xanthomonas TALE)); details: ELISA
[6] = system: TALE test backbone, repeat 5 RVD GG (synthetic (Xanthomonas TALE)); details: ELISA
[7] = system: TALE test backbone, repeat 5 RVD HI (synthetic (Xanthomonas TALE)); details: ELISA
[8] = system: TALE test backbone, repeat 5 RVD IA (synthetic (Xanthomonas TALE)); details: ELISA
[9] = system: TALE test backbone, repeat 5 RVD IG (synthetic (Xanthomonas TALE)); details: ELISA
[10] = system: TALE test backbone, repeat 5 RVD KG (synthetic (Xanthomonas TALE)); details: ELISA
[11] = system: TALE test backbone, repeat 5 RVD KT (synthetic (Xanthomonas TALE)); details: ELISA
[12] = system: TALE test backbone, repeat 5 RVD LA (synthetic (Xanthomonas TALE)); details: ELISA
[13] = system: TALE test backbone, repeat 5 RVD NI (Xanthomonas sp. (engineered)); details: RVD NI
[14] = system: TALE test backbone, repeat 5 RVD QA (synthetic (Xanthomonas TALE)); details: ELISA
[15] = system: TALE test backbone, repeat 5 RVD TP (synthetic (Xanthomonas TALE)); details: ELISA
[16] = system: TALE test backbone, repeat 5 RVD VG (synthetic (Xanthomonas TALE)); details: ELISA
[17] = system: TALE test backbone, repeat 5 RVD YG (synthetic (Xanthomonas TALE)); details: ELISA

For “TTGACCATCCT (double strand) [CCA target]”, which binding signal (normalized ELISA) [1] is on record?
The binding signal (normalized ELISA) was 0.4.

And the binding signal (normalized ELISA) [2]?
The binding signal (normalized ELISA) was 0.

What about the binding signal (normalized ELISA) [3] of the same sequence?
Its binding signal (normalized ELISA) is 0.

And the binding signal (normalized ELISA) [4]?
Its binding signal (normalized ELISA) is 0.58.

And the binding signal (normalized ELISA) [5]?
Its binding signal (normalized ELISA) is 0.01.

What about the binding signal (normalized ELISA) [6] of the same sequence?
The binding signal (normalized ELISA) was 0.35.

What about the binding signal (normalized ELISA) [7] of the same sequence?
Its binding signal (normalized ELISA) is 0.1.

And the binding signal (normalized ELISA) [8]?
The binding signal (normalized ELISA) was 0.24.

What about the binding signal (normalized ELISA) [9] of the same sequence?
The binding signal (normalized ELISA) was 0.02.

What about the binding signal (normalized ELISA) [10] of the same sequence?
Its binding signal (normalized ELISA) is 0.27.

What about the binding signal (normalized ELISA) [11] of the same sequence?
The binding signal (normalized ELISA) was 0.81.

And the binding signal (normalized ELISA) [12]?
The binding signal (normalized ELISA) was 0.02.

What about the binding signal (normalized ELISA) [13] of the same sequence?
Its binding signal (normalized ELISA) is 0.04.

What about the binding signal (normalized ELISA) [14] of the same sequence?
Its binding signal (normalized ELISA) is 0.19.

What about the binding signal (normalized ELISA) [15] of the same sequence?
The binding signal (normalized ELISA) was 0.2.

What about the binding signal (normalized ELISA) [16] of the same sequence?
Its binding signal (normalized ELISA) is 0.02.

And the binding signal (normalized ELISA) [17]?
The binding signal (normalized ELISA) was 0.02.

Source: patent publication US20110301073
